Reference: IntAct's records for PubMed 33513601

Target: un13d_human UNC13D (UniProt Q70J99)
Sequence (Q70J99 whole entry): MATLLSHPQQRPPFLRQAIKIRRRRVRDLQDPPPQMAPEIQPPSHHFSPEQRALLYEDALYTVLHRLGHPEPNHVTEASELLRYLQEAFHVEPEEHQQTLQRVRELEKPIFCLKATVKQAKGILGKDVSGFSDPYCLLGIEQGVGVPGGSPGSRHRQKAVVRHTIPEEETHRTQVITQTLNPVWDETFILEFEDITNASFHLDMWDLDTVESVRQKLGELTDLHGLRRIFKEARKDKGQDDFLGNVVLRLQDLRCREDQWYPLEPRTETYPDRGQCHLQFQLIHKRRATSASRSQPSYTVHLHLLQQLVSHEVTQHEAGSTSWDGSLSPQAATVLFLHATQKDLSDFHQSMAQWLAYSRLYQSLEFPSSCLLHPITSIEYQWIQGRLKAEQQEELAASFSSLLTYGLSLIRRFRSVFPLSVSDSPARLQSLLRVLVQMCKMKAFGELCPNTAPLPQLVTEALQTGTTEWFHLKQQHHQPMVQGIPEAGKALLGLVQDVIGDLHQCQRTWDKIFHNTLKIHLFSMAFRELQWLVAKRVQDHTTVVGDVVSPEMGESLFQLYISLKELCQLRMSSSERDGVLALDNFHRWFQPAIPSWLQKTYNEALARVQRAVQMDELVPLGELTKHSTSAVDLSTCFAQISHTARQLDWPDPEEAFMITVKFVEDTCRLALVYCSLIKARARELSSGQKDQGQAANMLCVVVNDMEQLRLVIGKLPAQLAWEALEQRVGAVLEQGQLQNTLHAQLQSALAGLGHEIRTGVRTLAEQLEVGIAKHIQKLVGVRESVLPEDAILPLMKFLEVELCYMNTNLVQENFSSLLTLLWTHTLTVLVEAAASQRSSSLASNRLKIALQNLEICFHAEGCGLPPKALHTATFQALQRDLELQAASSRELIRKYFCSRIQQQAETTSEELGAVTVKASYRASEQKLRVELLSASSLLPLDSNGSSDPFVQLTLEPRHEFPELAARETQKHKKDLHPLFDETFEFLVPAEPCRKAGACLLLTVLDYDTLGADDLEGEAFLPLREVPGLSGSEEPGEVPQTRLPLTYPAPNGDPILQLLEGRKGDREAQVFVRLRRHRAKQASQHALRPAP

Chain of Rho-related GTP-binding protein RhoG (Homo sapiens), P84095 Q61L (P84095 whole entry Q61L): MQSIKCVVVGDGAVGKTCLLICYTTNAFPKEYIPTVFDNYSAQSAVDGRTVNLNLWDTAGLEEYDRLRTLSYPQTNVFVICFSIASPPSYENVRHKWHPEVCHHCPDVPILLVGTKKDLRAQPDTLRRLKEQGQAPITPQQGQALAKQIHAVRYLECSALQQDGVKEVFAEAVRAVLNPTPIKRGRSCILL

effect of a mutation on the interaction: with no effect
Substance: Rho-related GTP-binding protein RhoG (Homo sapiens), P84095 Q61L
